In the DeepSol protein solubility set:

test: soluble on expression in E. coli; label from the status in PepcDB or PDB records

Soluble on expression in E. coli, soluble:
MAHHHHHHMSANGKISVPEAVVNWLFKVIQPIYNDGRTTFHDSLALLDNFHSLRPRTRVFTHSDGTPQLLLSIYGTISTGEDGSSPHSIPVIMWVPSMYPVKPPFISINLENFDMNTISSSLPIQEYIDSNGWIALPILHCWDPAAMNLIMVVQELMSLLHEPPQDQAP
MPVETREISVTAKEDCGIVDITGIVSEEVEKSEIKNGTVTVFCVGSTGAISTMEFESNLSKDISEILDKLIPLNEDYHHHKTWGDFNGGSHLRSFLLGPSLTVPFVEKKLTLGTWQQIVYINFDRIEKVRKIVLQIIGDLLEHHHHHH
MQKVHVQYIDGETDQMLRQDDLDGYTDETIPYSTAEGIKKFEGDGYELFKDNFPAGEKFDNDDTNDQFYTVIFKHHRENVDPNHSSADGTKGTKTLTETVHYKYANGTKAAEDQTAQVTFTRNGVLDDVTGIVAWGKWNEASQSYKALTSPTIAGYAPSEAVVKRSSNSDAEQGPTLTVIYTADA
MKHTLPDLPFDYADLEPVISHEIMQLHHQKHHATYVNNLNQIEEKLHEAVSKGNLKEAIALQPALKFNGGGHINHSIFWTNLAKDGGEPSKELMDTIKRDFGSLDNLQKRLSDITIAVQGSGWGWLGYCKKDKILKIATCANQDPLEGMVPLFGIDVWEHAYYLQYKNVRPDYVHAIWKIANWKNISERFANARQ
MRGSMGAMHVLTLDLAPVTPKDAPLLHRVFHLSPSYFALIGMELPTLEDVVRDLQTLEVDPRRRAFLLFLGQEPVGYLDAKLGYPEAEDATLSLLLIREDHQGRGLGRQALERFAAGLDGVRRLYAVVYGHNPKAKAFFQAQGFRYVKDGGPTLTWYVRPL

Soluble on expression in E. coli, not soluble:
MGSDKIHHHHHHDKLDLSPIDYYGSGSYWKTEAQATAYIDGIHKHLRDAAWQHTITFGELRGGRFITGASSDGMGVSNGDIILQNFDETHTGVSKFGDLFGRITNLNLFIARVTDATYLSDEMKNFYLGEVYGLRAFYYFDLYRIYGGVPLRLTADVVEGVIDPNKLYMARSTPKEVMTQIKSDLNKSMEYFGNMNDFDPYKRGKKVYWSKAATECLMGEVYLWTSKVTTGDDVANPADLTIAKTHLESVLNNYNLKMLDDFSQVFNAKNKANDEIIFAIRFLEGEATNSNGTFTYNVGTGSTKNRYQANGEVFGDALDIQNTGNQTYEYNKAVYQNFDDADTRKEATFIASYNKDGKTGELSLYGTHVRKNIGYVNAQGARVYCGDYIFYRLPWVYLTLAEIANMEGDNAAVAKYINLVRKRAYGNAWDETLYAYPETADFTTNELAILHEKDKEFIQEGQRWWDLRRMTLTKGGTPLVFCKEGSLLGDAPILNKSTEAHKLLWPIEKTMLNKDPALEQTPGYK
MRKFIFILLLIISSFSFCSNEISVDKSVEESVTKDYDQDGKYSSYERALRNAQGSIYVTLPEKRGYWYTILDRIKAEEDELMPDEKARIRRK
MSLDIHDILVIDDSRLQRQHAMDLCRQLGIASVREAPDGERGLTLMRVQMPDLLLLDLEMPKQDGVQVMQEMARAGLSSPVIITSGKDYLLISTVELMGRELGLPVLGCLQKPLQLPALLDLMHRVWTPAERPDDAPLAADEVRVALEKGQIIPYYQPKVNLADGRVKGAEMLARWQHPDLGLIPPSRFIPVIEDNGWATELTMLMLRQGLTQWQEWARHGLRLPLSVNLSALSLRGDELVDEIECYVRGSHVPARFIIFEVTETAIVDNLAQAIGCAVRLRLAGLGLSIDDFGTGFATLQQLTRFPFTELKIDQSLVTGISDKPHLQAVFNSIIEMARRLQLATVAEGIETAEDYQLMAERGCQLGQGYYFARPLPAAAFLEWTRQPPVLPTAGEGHHHHHH
MFPMNYSLIDLSAIECPESDLFIEGVVLAANLATRPLDPEQWLPELFTEQHQALLQPVTEQIHRQYQLLKGNGYDLLALLAEHAPSRKQGLADFAEGFMQLWPQVEPMWQQGAFADGSIRMLQALLTTLMLAIDEAQTQAQMREAGYEQVPALADLIEQLNLMVHEVALAADEAMLGAKAQSVNPFKGIGRNDACPCDSGKKFKQCCGQ
MNQIDTGLVKRLIREQFPEWAHLEVKPVKFSGHDNRTFQLGDKMSVRLPSDAAYTPQVEKENKWLPILSKELSLPISTPIAKGNPSEAYPWPWSINKWIEGETVTKQNVRDLSEFAAHLGSFLVELQSIDASKGPIAGAHNFYRGGLISVYDEEARDAIENNKDVFDETVLKHLWDLALQSTWRRKPVWIHGDVAPGNLLVKDGKLCAVIDFGILGVGDPACDAAMSWTFFDKSSRKIFKEVLQIDEETWNRARGWALWKALITYDANKISNKIVAEESYRVIQVIVNDYGR
MGSDKIHHHHHHMITHRSDLNANYLLNALPRSEWESLAQHVELVRLRAGELLTDSGQRIVHVYFPTTSVVSLLSLLEDGATVEIAAVGNEGLVGVPVVTGGDTMPCRVEVRSPGLAYRIPARLLRSELPRTPTLQRVTLLYVQAMLTQIAQTAACNRHHSLNKQLCRWLLLAVDRLSSNELVITQQVIANMLGVRREGVTEAAGKLEDLGLIHHSRGHITVLDRCGLEKHSCECYKLVKREYDRLLPALAHA
MLNKRHLPSIAALQCFEAVTRHLSFTRAAEELNLTQSAVSKQVAQLEELVQHLLFQRVRRRLQLTPAGALYLAEVRKILTQIEMSTHFLRSYGGETEVLRVSTPSTFGARWLVPRLKGWRLRHPHIHLDLINEQESDDLLKGRCDVSFYFGQAAIPGAESVKLFGEELVPVCSPDSLPAEPFTDPTQLSELVLLQNAFRPQAWHEWFESQGYHTDHSYHGPRFETFYMCIRAAQVGCGVALLPRFLVEEELAEGKLVIAWDYALPSTNSAYYLSYPEHTADVPKIRVFLQWMLEQLDQPAR
MGSDKIHHHHHHADGNDPVENSVSTYLLEKTYGARSVTYEENNSDKLKLSELPAISLSEADHILSVLRKHTDAQEELDIQTATKGEQTWLRIVMKQTIDHKYAFTIQLNMNCYNDGSLYYGGYQAECSSSLIKWYLKGFSLATDNATKNYKFESQSYIYMKVIDNGIKYMQIPVTINGNYNPQNHDAAFSYNL
MGSIILKAFDESTEINGDSLDLGEIQLTPYKGRLTLELLKKPAHTSQEEPGLEQENLYNYTISIYNKTKQAKIKNFNIKPPYIFLNDTNIETGDVIEVTFTHKKDYTLPATIELTLDRLMNASGQAVAKENGKGMASIQSGNQRCELMVYNSDKKFIESCSMNREGKIISNPLKEGVYTFVFISSNNYLWRLNTLEQFEEIGLKEGIHFVKKEVEIKNGEIKDLGLIVVPELNEKELFFTDPDVASYAVVSENNRIGKDIVLRAKYSFRKPIESQTVKLLFRVPDQTFYVKDTLTIDGELVDSVNVSGSFIEVTTTKTEGVVRFNIRPTEAVVCYSNAYVEFKAEGRTVREPLGVVNEVVPYLTIGAPNVTSLEKVYVTGQTLPNLEVKIYDEGSLVGVTKANSTGAWNFQVSLGKDKSYSVHNLSARIEYNDQVIESETLEVIYKKSVPEIEKVTMIHSNQSLILYKNGEIVPKGVYTYVPSQSYTFIVDFVGDSAEEIENLCIVSNRNGEERKLDAKYDPQSKSWIATGSFGYNHVPGSFTVEYNLKKKRLIKEDGELNLEVLEQISTFADQFLYELKKENVMVGLLDENEIGFMLKEDTGGIAIVTIVIGDQPIEREKYEKMGYLFKEIDGKLGAVLLIKDETENKIFTSKVRLASNKTEDSVKSEDDDESSQKETPLVTKDERISMAATIIGELGNIAGSGKVVEAIDFISGIGTAVNTIAFTPANAVTDMGYVQKKLQESENISSEDKERLRDDLFLASGVYNFTVNANFIASLMDGHTRNGTMHKIIDIVIDKYDQYSLGDKLWEDIFGKNEDDRESGKSTKSGKGSSIKLPLQEQKTLVDPSGYVYETVPDNRITDATVTVYYKDENGEMILWNAEEFGQKNPLLTDENGFYAWDVPEGMWQVKVEKEGYETAYSEILPVPPVQTNVNIPLVSYEPPKVGHIYAYPEYIEIAFSKYVKHATLDSESIQLKQGENKVNIKIVYEDEEGNYSKKIKLIPAEKTSFEGKYTLNISKSITSYAGVAMQKAEIRDIEIVAEPKSIEILDKVEIELRKTVAIEIRVLPEEAAKGKKIIVTSGMEEIVSAEDVLLDERGRGKLKLKGNLPGTVDIDLRLEGSAVEKKIQATVKFPEDNGEIIEPPVVLNGDLNRNGIVNDEDYILLKNYLLRGNKLVIDLNVADVNKDGKVNSTDCLFLKKYILGLITI
